Test results: the MegaScale stability set (Tsuboyama et al. 2023)

B1: EEHEE_rd4_0647 (parent)
chain: MQVTWGNVTVTFSNPEEAKKYAEKVARKLGGQVELHNGQFRIK
B2: EHEE_rd3_0053 (parent)
chain: TYTFKVDNKDQAKKAAKWAKKLGLSFQIEKHGDTFKITVQ

Variants of: B1
Assay: folding stability dG (cDNA display proteolysis); higher = more stable
Conditions: PBS, room temperature

Folding stability dG [kcal/mol]: each site, then its substitutions
F12: K 0.98, Q 0.017, P -0.871, S -0.107, E -0.423, H 0.464, T 0.01, G -0.079, M 1.38, Y 1.28, V 0.887, C 2.49, W 1.18, A 0.449, I 1.43, R 0.663, N -0.258, L 1.96
V10: C 3.62, H 2.15, I 2.94, S 1.23, F 2.53, T 1.74, A 1.97, Q 1.85, M 2.67, P -0.399, R 2.65, Y 2.7, G 0.582, N 1.2, L 2.76, K 2.66, D 0.472, W 2.84, E 1.5
N14: V 2.05, G 2.12, K 2.42, D 2.79, A 2.21, S 2.86, Y 1.91, Q 2.2, E 2.2, F 1.98, W 1.76, R 2.47, T 2.89, M 1.99, L 2.23, I 2.08, P 0.65, H 2.38
N7: P 2.29, H 2.64, Q 2.49, L 2.27, S 2.68, T 2.67, C 3.66, R 2.64, I 2.31, M 2.37, G 2.58, K 2.72, F 2.43, A 2.39, Y 2.54, V 2.33, D 2.58, W 2.43, E 2.39
E16: R 2.55, G 2.54, P 1.4, L 2.78, D 2.79, H 2.7, F 2.71, I 2.81, Y 2.77, S 2.68, M 2.76, N 2.56, A 2.78, C 3.18, T 2.75, W 2.75, V 2.81, Q 2.7, K 2.52
V3: Q 0.078, P 0.068, Y 0.842, L 1.35, N 0.227, I 1.61, E 0.263, C 1.8, T 0.641, S 0.229, H 0.343, F 1.97, G 0.57, D 0.045, M 1.05, W 0.9, R 0.122, K 0.404, A 0.626
M1: C 3.6, F 3.34, W 3.72, E 1.3, S 2.61, Q 2.03, Y 3.45, D 1.42, L 2.78, K 2.27, H 2.9, A 2.6, P 2.09, T 3.28, V 3.11, I 3.13, R 2.57, G 1.95, N 2.45
Q2: A 2.64, I 2.82, G 2.12, E 2.52, L 2.55, F 2.16, H 2.3, C 3.07, M 2.71, K 2.94, T 3.09, V 2.86, S 3.04, R 2.72, W 1.97, P 1.45, N 2.49, D 2.46, Y 2.23
T4: D 0.672, R 2.76, I 2.97, E 1.66, L 2.6, K 2.58, P 0.446, H 2.54, V 3.15, G 1.46, F 2.24, Q 2.49, A 2.49, W 2.11, N 2.18, Y 2.21, S 2.81, M 2.58
S13: R 2.81, K 2.86, L 2.57, I 2.52, D 2.75, M 2.6, C 3.28, A 2.8, W 2.34, N 2.79, V 2.51, H 2.62, Q 2.71, P 2.58, G 2.5, Y 2.38, T 2.83, F 2.49, E 2.65
W5: L 2.12, A 1.17, C 3.09, V 2.64, I 2.61, F 2.53, E 0.581, G 0.431, M 1.83, Q 0.719, H 2.15, K 0.547, T 1.19, N 1.12, S 0.968, R 0.966, D 1.03, Y 2.53, P 0.153
E17: H 2.7, K 2.69, N 2.47, D 2.92, M 2.83, F 2.47, G 1.97, I 2.66, L 2.84, A 2.93, C 3.18
T9: N 1.62, A 1.85, P 0.422, C 3.2, G 0.945, L 2.22, R 2.06, D 0.892, S 2.26, V 2.84, Y 1.85, K 2.02, I 2.71, M 2.15, W 1.78, F 1.95, H 1.77, Q 1.84, E 1.46
P15: L 2.77, D 1.92, T 2.83, E 2.54, G 2.46, H 2.88, S 2.79, M 3.03, F 3.41, V 2.93, I 2.99, Q 2.7, K 2.83, R 2.78, N 2.29, C 3.26, W 3.08, A 2.89, Y 3.5
G6: H 2.48, A 2.25, K 2.1, M 2.32, Y 2.51, R 2.21, Q 1.99, P 0.79, T 1.3, E 1.96, I 1.59, S 2.08, N 2.38, L 2.49, W 2.76, D 2.86, F 2.55, C 3.2, V 1.39
V8: P 0.417, W 2.79, K 2.57, I 2.96, L 2.45, Q 2.35, D 1.33, M 2.68, Y 2.84, G 1.49, H 2.8, N 2.51, A 1.89, T 2.64, R 2.5, S 2.01, E 1.92, F 2.81
T11: Q 2.53, E 2.34, W 3.23, S 2.73, P 1.65, R 2.62, H 2.72, G 2.05, Y 3.02, C 3.51, N 2.58, K 2.49, L 2.62, V 2.59, A 2.38, D 1.99, I 2.71, F 3, M 2.64

Variants of: B2
Assay: as above
Conditions: PBS, room temperature

Folding stability dG [kcal/mol]: each site, then its substitutions
Q40: V 2.41, K 2.45, M 2.6, D 1.98, I 2.49, P 1.14, E 2.19, A 2.46, G 2.55, F 3.05, C 2.75, N 2.4, T 2.62, L 2.41, R 2.59, Y 3, S 2.77, H 2.56, W 3.28
V39: S -0.061, Y 1.68, T 0.975, W 1.56
